Here are results for one molecule from patent US20090087428A1.

What is called EC50 is the concentration that produces a half-maximal response. High values mean lower potency in that assay, low ones higher potency in that assay.

For this assay, the target named is GST-huFcγRIIA(R131) (human) [GST: P08515]. In words: ELISA, plate-coated GST fusion (FIG. 8). A general note: In an ELISA, binding on a coated surface is turned into a signal by an enzyme label.

B1: Antibody 5A6.2.1 (anti-human FcγRIIB monoclonal antibody) (antibody)
VH: EVKLEESGGGLVQPGGSMKLSCVASGFTFSDAWMDWVRQSPERGLEWVAEIRSKPNNHATYYAESVKGRFTISRDDSKSSVYLQMTSLRPEDTGIYYCTHFDYWGQGTTLTVSSAKTTGPSVFPLAPSSKSTSGGTAALGCLVKDYFPEPVTVSWNSGALTSGVHTFPAVLQSSGLYSLSSVVTVPSSSLGTQTYICNVNHKPSNTKVDKKVEPKSCDKTHT
VL: DIQMTQSPSSLSASLGERVSLTCRASQEISGYLSWFQQKPDGTIKRLIYAASALDSGVPKRFSGSWSGSDYSLTISSLESEDFADYYCLQYVSYPLTFGAGTKLELKRTVAAPSVFIFPPSDEQLKSGTASVVCLLNNFYPREAKVQWKVDNALQSGNSQESVTEQDSKDSTYSLSSTLTLSKADYEKHKVYACEVTHQGLSSPVTKSFNRGEC
With B1, the EC50 came out at 2.5 µg/mL.
